# PMC2212760 (The Journal of Experimental Medicine, 2005)
# How the values were obtained:
# FPRL2 [1] = target: T1, FPRL2 (Homo sapiens, UniProt P25089); conditions: not depicted
# T1 sequence (P25089 1-353): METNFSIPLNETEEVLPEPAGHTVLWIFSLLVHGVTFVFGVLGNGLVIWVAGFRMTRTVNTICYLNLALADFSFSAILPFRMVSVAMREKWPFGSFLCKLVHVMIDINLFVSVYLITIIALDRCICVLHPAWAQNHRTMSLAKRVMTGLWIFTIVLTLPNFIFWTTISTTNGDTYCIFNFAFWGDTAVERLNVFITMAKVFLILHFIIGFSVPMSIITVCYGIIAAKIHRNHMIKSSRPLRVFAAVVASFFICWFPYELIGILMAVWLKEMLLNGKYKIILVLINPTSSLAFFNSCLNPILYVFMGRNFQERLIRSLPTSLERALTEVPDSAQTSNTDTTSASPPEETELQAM
# FPRL2 [2] = target: T1, FPRL2; assay: aequorin-based functional assay on FPRL2-expressing CHO-K1 cells; conditions: aequorin assay (FMLP, SHAAG: aequorin and cAMP assays)
sequence,measurement,setting,value
NSLFGSVETWPWQVL [F2L[7–21]],activity in FPRL2 binding assay,FPRL2 [1],totally inactive
same,activity on FPRL2,FPRL2 [2],totally inactive
